The target in test [1] is p44ct(368–534) (Chaetomium thermophilum). The test can be described thus: ITC.
The target in a further test is full length p44hs (Homo sapiens, UniProt Q13888 1-395). In words: co-IP.
Sequence of full length p44hs (Q13888 whole entry): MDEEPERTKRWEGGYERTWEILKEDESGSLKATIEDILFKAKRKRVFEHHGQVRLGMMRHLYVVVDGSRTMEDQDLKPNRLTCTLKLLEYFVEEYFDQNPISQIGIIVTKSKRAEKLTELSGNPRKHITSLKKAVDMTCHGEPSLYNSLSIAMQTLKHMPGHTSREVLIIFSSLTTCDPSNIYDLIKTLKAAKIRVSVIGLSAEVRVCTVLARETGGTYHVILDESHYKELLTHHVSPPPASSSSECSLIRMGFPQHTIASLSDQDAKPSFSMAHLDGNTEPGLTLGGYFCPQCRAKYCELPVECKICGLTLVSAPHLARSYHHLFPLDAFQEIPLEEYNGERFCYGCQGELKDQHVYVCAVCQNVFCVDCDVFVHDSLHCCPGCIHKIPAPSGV

In test [1], p34ct(1–277) (domain or fragment) registered a Kd of 11 nM, a dH of -25 kcal/mol and a stoichiometry N of 0.71.

B1: full length p34hs (natural protein)
chain: MVSDEDELNLLVIVVDANPIWWGKQALKESQFTLSKCIDAVMVLGNSHLFMNRSNKLAVIASHIQESRFLYPGKNGRLGDFFGDPGNPPEFNPSGSKDGKYELLTSANEVIVEEIKDLMTKSDIKGQHTETLLAGSLAKALCYIHRMNKEVKDNQEMKSRILVIKAAEDSALQYMNFMNVIFAAQKQNILIDACVLDSDSGLLQQACDITGGLYLKVPQMPSLLQYLLWVFLPDQDQRSQLILPPPVHVDYRAACFCHRNLIEIGYVCSVCLSIFCNFSPICTTCETAFKISLPPVLKAKKKKLKVSA
With B1, the binding result in the test with full length p44hs is on record as “binds”.

(Values after article PMC5737387 (Nucleic Acids Research, 2017).)
